According to FireProtDB (doi:10.1021/bi9910169):

B1: Lysozyme C, P61626 (parent)
chain: MKALIVLGLVLLSVTVQGKVFERCELARTLKRLGMDGYRGISLANWMCLAKWESGYNTRATNYNAGDRSTDYGIFQINSRYWCNDGKTPGAVNACHLSCSALLQDNIADAVACAKRVVRDPQGIRAWVAWRNRCQNRDVRQYVQGCGV

Variants of: B1
Settings: Homo sapiens; pH 2.54; Thermal; DSC; glycine-HCl 0.05 M; reversible: yes; structure 1LZ1; whole UniProt chain shown

Variant	Tm [°C]	unfolding enthalpy (calorimetric) [kcal/mol]	unfolding enthalpy (van 't Hoff) [kcal/mol]
T61A	61.1	104	105

Same assay, conditions: Homo sapiens; pH 2.74; Thermal; DSC; glycine-HCl 0.05 M; reversible: yes; structure 1LZ1; whole UniProt chain shown

Variant	Tm [°C]	unfolding enthalpy (calorimetric) [kcal/mol]	unfolding enthalpy (van 't Hoff) [kcal/mol]
T61A	64.5	108	109
T29A	66.8	112	115

Same assay, conditions: Homo sapiens; pH 2.9; Thermal; DSC; glycine-HCl 0.05 M; reversible: yes; structure 1LZ1; whole UniProt chain shown

Variant	Tm [°C]	unfolding enthalpy (calorimetric) [kcal/mol]	unfolding enthalpy (van 't Hoff) [kcal/mol]
T61A	67.1	111	112

Same assay, conditions: Homo sapiens; pH 2.51; Thermal; DSC; glycine-HCl 0.05 M; reversible: yes; structure 1LZ1; whole UniProt chain shown

Variant	Tm [°C]	unfolding enthalpy (calorimetric) [kcal/mol]	unfolding enthalpy (van 't Hoff) [kcal/mol]
T61V	65	99.9	112
T29V	62.9	104	107

Same assay, conditions: Homo sapiens; pH 2.71; Thermal; DSC; glycine-HCl 0.05 M; reversible: yes; structure 1LZ1; whole UniProt chain shown

Variant	Tm [°C]	unfolding enthalpy (calorimetric) [kcal/mol]	unfolding enthalpy (van 't Hoff) [kcal/mol]
T61V	68.4	105	114
T29V	66.2	110	112

Same assay, conditions: Homo sapiens; pH 3.02; Thermal; DSC; glycine-HCl 0.05 M; reversible: yes; structure 1LZ1; whole UniProt chain shown

Variant	Tm [°C]	unfolding enthalpy (calorimetric) [kcal/mol]	unfolding enthalpy (van 't Hoff) [kcal/mol]
T61V	73	108	118
T29A	71.4	116	119

Same assay, conditions: Homo sapiens; pH 3.2; Thermal; DSC; glycine-HCl 0.05 M; reversible: yes; structure 1LZ1; whole UniProt chain shown

Variant	Tm [°C]	unfolding enthalpy (calorimetric) [kcal/mol]	unfolding enthalpy (van 't Hoff) [kcal/mol]
T61V	75.4	113	121

Same assay, conditions: Homo sapiens; pH 2.5; Thermal; DSC; glycine-HCl 0.05 M; reversible: yes; structure 1LZ1; whole UniProt chain shown

Variant	Tm [°C]	unfolding enthalpy (calorimetric) [kcal/mol]	unfolding enthalpy (van 't Hoff) [kcal/mol]
T58A	56.6	97.5	103
T58V	57	96.6	104
T88A	57.3	98.5	99.9
T88V	59.5	102	106
T70V	58.8	98.7	104

Same assay, conditions: Homo sapiens; pH 2.7; Thermal; DSC; glycine-HCl 0.05 M; reversible: yes; structure 1LZ1; whole UniProt chain shown

Variant	Tm [°C]	unfolding enthalpy (calorimetric) [kcal/mol]	unfolding enthalpy (van 't Hoff) [kcal/mol]
T58A	59.4	99.9	102
T58V	59.2	93	99.9
T88A	60	101	104
T88V	62.6	107	111
T70A	61.9	103	109
T70V	62.1	102	107

Same assay, conditions: Homo sapiens; pH 2.85; Thermal; DSC; glycine-HCl 0.05 M; reversible: yes; structure 1LZ1; whole UniProt chain shown

Variant	Tm [°C]	unfolding enthalpy (calorimetric) [kcal/mol]	unfolding enthalpy (van 't Hoff) [kcal/mol]
T58A	63.3	107	114
T58V	63.2	110	113
T88A	62.2	103	106
T88V	65.3	112	117
T70A	64.4	105	112
T70V	64.2	105	110

Same assay, conditions: Homo sapiens; pH 3; Thermal; DSC; glycine-HCl 0.05 M; reversible: yes; structure 1LZ1; whole UniProt chain shown

Variant	Tm [°C]	unfolding enthalpy (calorimetric) [kcal/mol]	unfolding enthalpy (van 't Hoff) [kcal/mol]
T58A	66.5	114	117
T58V	66.3	112	119
T88A	64.7	107	110
T88V	67.6	115	121
T70A	66.9	108	114
T70V	66.6	107	113

Same assay, conditions: Homo sapiens; pH 3.1; Thermal; DSC; glycine-HCl 0.05 M; reversible: yes; structure 1LZ1; whole UniProt chain shown

Variant	Tm [°C]	unfolding enthalpy (calorimetric) [kcal/mol]	unfolding enthalpy (van 't Hoff) [kcal/mol]
T58A	68.6	117	121
T58V	68.7	115	123
T88A	67.1	110	113
T88V	70.3	119	123
T70A	68.9	109	118
T70V	68.7	111	114

Same assay, conditions: Homo sapiens; pH 2.82; Thermal; DSC; glycine-HCl 0.05 M; reversible: yes; structure 1LZ1; whole UniProt chain shown

Variant	Tm [°C]	unfolding enthalpy (calorimetric) [kcal/mol]	unfolding enthalpy (van 't Hoff) [kcal/mol]
T29A	68.5	115	116

Same assay, conditions: Homo sapiens; pH 3.22; Thermal; DSC; glycine-HCl 0.05 M; reversible: yes; structure 1LZ1; whole UniProt chain shown

Variant	Tm [°C]	unfolding enthalpy (calorimetric) [kcal/mol]	unfolding enthalpy (van 't Hoff) [kcal/mol]
T29A	73.4	119	120

Same assay, conditions: Homo sapiens; pH 2.81; Thermal; DSC; glycine-HCl 0.05 M; reversible: yes; structure 1LZ1; whole UniProt chain shown

Variant	Tm [°C]	unfolding enthalpy (calorimetric) [kcal/mol]	unfolding enthalpy (van 't Hoff) [kcal/mol]
T29V	68.7	114	117

Same assay, conditions: Homo sapiens; pH 3.19; Thermal; DSC; glycine-HCl 0.05 M; reversible: yes; structure 1LZ1; whole UniProt chain shown

Variant	Tm [°C]	unfolding enthalpy (calorimetric) [kcal/mol]	unfolding enthalpy (van 't Hoff) [kcal/mol]
T29V	73	117	121
